Assay results published in patent US20250369960A1, “PER- AND POLYFLUORINATED ALKYL COMPOUND (PFAS) BINDING PROTEINS AND USES THEREOF” (Allonnia, LLC, priority 2022, published 2025).

B1: mAB1: rabbit anti-PFOA monoclonal antibody, heavy chain variable SEQ ID NO: 15, light chain variable SEQ ID NO: 20 (antibody, listed as Oryctolagus cuniculus, V domains shown)
VH: QSVKESEGGLFKPTDTLTLTCTASGFSLSSYGVSWVRQAPGNGLEWIGSIEDGGSAYYASWAKSRSTITSNTNLNTVTLQMTSLTAADTATYFCGSLSIGSAYPGIWGPGTLVTVSS
VL: AIVMTQTPSSKSVPVGDTVTIKCQASQSIGTRLAWFQQKPGQPPKRLIYSASTLASGVPSRFSGSGSGTQFTLTISDVVCDDAAAYYCGGYKSSSSDGIAFGGGTEVVVKG
B2: mAB4: rabbit anti-PFOA monoclonal antibody, heavy chain variable SEQ ID NO: 18, light chain variable SEQ ID NO: 23 (antibody, listed as Oryctolagus cuniculus, V domains shown)
VH: QEQLEESRGGLIKPTDTLTLTCTASGFSLSNYGINWVRQAPGEGLEWIGAIRGSGFIYYATWAKSRSTITRNTNLNTVTLKMTSLTAADTATYFCARRDGLYSAMDPWGPGTLVTVSS
VL: DPVLTQTPSSTSAAVGGTVTISCQSSDSVYKNNYLAWFQQKPGQPPKVLIYHASKLASGVPSRFSGSGSGTQFTLTISGVQCDDAATYYCLGEYSDTHVFGGGTEVVVKG
B3: mAB5: rabbit anti-PFOA monoclonal antibody, heavy chain variable SEQ ID NO: 19, light chain variable SEQ ID NO: 24 (antibody, listed as Oryctolagus cuniculus, V domains shown)
VH: QSVKESEGGLFKPTDTLTLTCTASGFSLSSYGVIWVRQAPGKGLQWIGFINIYGTPSYASWAMGRSTITGNTNLNTVILKMTSLTVADTATYFCASSVGSDGYLYSSDIWGPGTLVTVSS
VL: DPVLTQTPSSVSAAVGGTVTINCQASQSVYNNKCLAWYQQKPGQPPKLLIYGASTLASGVPSRFSGSGSGTQFTLTISDLECDDAATYYCAGGYYSEIHFGGGTEVVVKG
B4: mAB3: rabbit anti-PFOA monoclonal antibody, heavy chain variable SEQ ID NO: 17, light chain variable SEQ ID NO: 22 (antibody, listed as Oryctolagus cuniculus, V domains shown)
VH: QSLEESEGGLFKPGGTLTLTCTVSGFSLNIYSISWVRQAPGKELEWIGTMSNVDATYYANWAKSRSTITRNINESTVTLKMPSLTVADTATYFCARYIYGAGYDIWGPGTLVTVSS
VL: ADIVMTQTPASVEAAVGGTVTIKCQASQSISSWLSWYQQKPGQPPKLLIYKASTLASGVPSRFKGSGSGTEYTLTISGVQCADAATYYCQSVYYSSSTNYGNTFGGGTEVVVKG
B5: mAB2: rabbit anti-PFOA monoclonal antibody, heavy chain variable SEQ ID NO: 16, light chain variable SEQ ID NO: 21 (antibody, listed as Oryctolagus cuniculus, V domains shown)
VH: QSVKESEGGLFKPTDNLTLTCAVSRFSLSSYGVSWVRQAPGNGLEWIGYIYTDGSAYYASWAKSRSTITRNTNLNTVTLKMTSLTAADTATYFCARHSSGWGIDYFNVWGPGTLVTVSS
VL: AAVLTQTPSSVSAAVGGTVTINCQASQSVYNNNYLSWYQQKPGQPPKLLIYLASTLASGVPSRFSGSGSGTEFTLTISDLECDDGATYYCAGGVTSSDRPFGGGTEVVVKG

Key:
[1] = Indirect ELISA on microplates coated with BSA-PFOA conjugate; assay type: binding; conditions: for binding affinity to BSA-PFOA: indirect ELISA, various antibody dilutions; for response to BSA-PFOA at 1:50,000 dilution: antibody dilution 1:50,000
Description: Polyclonal rabbit antibodies to PFOA were prepared according to methods well known in the art. E. Harlow & D. Lane, Antibodies: A Laboratory Manual (1988) (published by Cold Spring Harbor Press, Cold Spring Harbor, N.Y.). These polyclonal antibodies were tested for their binding affinity to PFOA (FIG. 1A). PFOA was conjugated to bovine serum albumin by methods well known in the art. G.T. Hermanson, Bioconjugate Techniques (Academic Press, 785 pp., 1995). S.S. Wong, Chemistry of Protein Conjugation and Cross-Linking (CRC Press, 340 pp., 1991); G.T. Hermanson et al., Immobilized Affinity Ligand Techniques (Academic Press, 450 pp., 1992). Microplates were treated with BSA-PFOA conjugate and incubated. After washing with buffer, blocking solution was added followed by varying dilutions of monoclonal antibodies (mABs). The plate was then further incubated. After washing again, anti-rabbit secondary antibodies were added. A color reaction was developed using tetramethyl benzidine (TMB), and the reaction was read at 450 nm.
The results were consistent over various antibody dilutions.

[2] = Competitive ELISA, specificity of binding to PFOA compared with octanoic acid; conditions: FIG. 5
Description: (§1) Microplates were treated with anti-PFOA mABs. After incubation, the wells were exposed to a biotin-PFOA conjugate and free PFOA compounds, which compete for a finite number of antibody recognition sites. Next, streptavidin-HRP conjugate was added, which binds to the biotin-PFOA molecules. The resultant color reaction was measured spectrophotometrically. P. Langer et al., 78 Proc. Nat'l Acad. Sci USA 6633-37 (1981); A. Forster et al., 13 Nucleic Acids Res. 745-61 (1985); L. Riley et al., 5 DNA 333-37 (1986); M.D. Savage et al., Avidin-Biotin Chemistry: A Handbook (Pierce Chemical Co., 467 pp., 1992). The amount of signal was inversely proportional to the concentration of free-PFOA provided. This approach determined the dynamic range of antibody detection.
Antibodies mAB3 and mAB5 were also tested for specificity of binding to PFOA as compared to known analogs, such as OA.

[3] = Surface plasmon resonance, antibody on CM5 sensor chip; assay type: binding; conditions: for SPR signal with PFOA: PFOA between 41 ppm and 41 ppb; for type of SPR binding interaction: instant association and dissociation curve
Source text: Surface plasmon resonance occurs when a directed light at a specific angle of incidence excites electrons in a thin metal sheet. As a result, the electrons travel parallel to the sheet. This is related to the refractive index of the material. Even a small change alters the response, allowing SPR to be used as a techniques for detection of physical interactions between analytes. […] In this example, the antibody is bound to a sensor chip that carries a matrix of carboxymethylated dextran covalently attached to a gold surface. In this example, the chip is a CM5 sensor chip.
mAb3 (FIG. 11) and mAB5 (FIG. 12) were tested for binding with different concentrations of PFOA ([…], 10 μM, 1 μM, 0.1 μM). The concentration of PFOA tested was between ˜41 ppm and 41 ppb.

[4] = Waveguide interferometry, antibody coupled to waveguide surface; assay type: binding; conditions: groundwater from a contaminated site, approximately 7.5 ppb PFOA, compared with 2 ppb PFOA signal
Description: The device combines two very sensitive methods, waveguiding and interferometry, to form waveguide interferometry technology used in rapid low-level detection sensing applications. In optical interferometry, small changes in refractive index are measured along the pathway of an optical beam of light during its propagation. As the light propagates, it generates an optical electromagnetic field, a small fraction of which-known as the evanescent field-enables detection by interacting with the changes in refractive index occurring on the waveguide cover layer. […] As PFAS is introduced to the functionalized waveguide, PFAS binding to the antibody displaces the sample solution near the waveguide surface, changing the light beam's velocity. Simultaneously, an adjacent reference beam is left unperturbed and is optically combined with the sensing beam to measure the velocity change. This creates an interference pattern that shifts as the refractive index changes, producing a corresponding change in the relative phase measurement.
Binding of PFAS binding proteins to PFAS was tested using interferometry. Specifically, binding of anti-PFOA antibody mAB5 to PFOA was measured by comparing the interferometry signal for a 1% methanol PBS buffer containing either 0 ppb PFOA (negative control; FIG. 14A) or 2 ppb PFOA (test sample; FIG. 14B). […]

[5] = Competitive ELISA, conjugated PFOA versus free PFOA; assay type: binding; conditions: for lowest PFOA concentration detected: synthetic matrix under laboratory conditions
Description: as §1
Antibodies mAB3 and mAB5 were then tested for dose response to PFOA using the competitive ELISA described in FIG. 1B. The assay was performed using two carrier molecules: (1) biotin (small carrier), and (2) horse radish peroxidase (HRP; large carrier). […] Also observed was the dynamic response of the assay to 0.5 ppb (500 ppt) of PFOA.
A plasmid containing the sequence for antibody mAB3 was expressed in Expi293 cells, and the resulting antibody was purified using Protein A and gel filtration chromatography, as is well known in the art. This antibody was tested for its binding affinity to PFOA using the competitive ELISA described in FIG. 1B.

[6] = Competitive ELISA, binding affinity to other PFAS compounds
Description: as §1
The mAB3 produced in vitro was also tested for its binding affinity to other PFAS compounds, including PFOS, PFHxS, and PFBA.

| Molecule | binding affinity to BSA-PFOA [1] | SPR signal with PFOA [3] | type of SPR binding interaction [3] | lowest PFOA concentration detected [5] | response to BSA-PFOA at 1:50,000 dilution [1] | also measured |
| --- | --- | --- | --- | --- | --- | --- |
| B1 | no significant binding affinity | – | – | – | – | – |
| B2 | no significant binding affinity | – | – | – | – | – |
| B3 | best binding affinity | concentration dependent signal | steady-state interaction | 0.5 ppb | negligible | response to PFOA versus OA [2]: 78 fold; interferometry signal in groundwater [4]: consistent and approximately proportional to the concentration of PFOA |
| B4 | best binding affinity | concentration dependent signal | steady-state interaction | 0.5 ppb | very depressed | affinity to OA as compared to PFOA [2]: six-fold lower; binding affinity to PFOA ([5]; antibody expressed in Expi293 cells, purified using Protein A and gel filtration chromatography): about 1 ppt; binding affinity to PFOA ([5]; antibody isolated from rabbit serum): about 500 ppt; response to BSA-PFOA at 1:25,000 dilution compared with 1:5,000 ([1]; antibody dilution 1:25,000 vs 1:5,000): approximately four-fold lower; binding to PFOS and other PFAS compounds in addition to PFOA ([6]; FIG. 9): can bind; binding affinity to PFOS as compared to PFOA ([6]; purified antibody produced in vitro): 99% |
| B5 | no significant binding affinity | – | – | – | – | – |
